Substitutions are numbered along the chain they refer to. Read-outs that look alike come from different tables or passages of the source.
T1: glypican-2 (GPC2), as used in the binding affinity test (UniProt Q8N158 24-553, limits assumed)
T1 construct: It states neither the form of the antigen nor the assay
T1 sequence (looked up): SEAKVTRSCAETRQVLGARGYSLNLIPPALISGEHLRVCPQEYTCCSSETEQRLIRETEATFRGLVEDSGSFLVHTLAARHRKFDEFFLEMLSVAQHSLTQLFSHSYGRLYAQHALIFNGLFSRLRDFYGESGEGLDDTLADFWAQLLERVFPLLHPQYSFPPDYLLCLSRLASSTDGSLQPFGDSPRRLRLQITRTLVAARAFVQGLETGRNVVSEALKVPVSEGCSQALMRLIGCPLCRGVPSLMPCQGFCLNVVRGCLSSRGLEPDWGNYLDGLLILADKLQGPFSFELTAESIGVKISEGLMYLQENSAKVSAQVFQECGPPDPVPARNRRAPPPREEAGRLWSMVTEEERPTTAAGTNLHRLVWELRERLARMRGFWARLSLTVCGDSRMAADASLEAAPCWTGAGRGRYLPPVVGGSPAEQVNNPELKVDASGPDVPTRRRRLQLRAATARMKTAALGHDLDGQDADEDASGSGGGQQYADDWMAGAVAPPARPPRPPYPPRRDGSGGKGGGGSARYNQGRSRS

B1: hCT3-1 (humanized CT3 antibody) (antibody, V domains shown)
VH: QVQLVQSGAEVKKPGASVKVSCKASRFTFTDYNIHWVRQAPGQGLEWIGYINPNNGDIFYKQKFNGRVTLTADKSTSTAYMELSSLTSEDTAVYYCVRSSNIRYTFDRFFDVWGQGTLVTVSS
VL: DVVMTQSPLSLPVTPGEPASISCRASSSVNYIYWYLQKPGQSPQLWIYYTSNLAPGVPDRFSGSGSGTDFTLKISRVEAEDVGVYYCQQFSSSPSTFGQGTKLEIK
B2: CT3 antibody (parental murine GPC2-specific monoclonal antibody) (antibody, V domains shown)
VH: EVQLQQSGPELVKPGASVKMSCKASRFTFTDYNIHWVKQSPGKTLEWIGYINPNNGDIFYKQKFNGKATLTINKSSNTAYMELRSLTSEDSAVYYCVRSSNIRYTFDRFFDVWGTGTTVTVSS
VL: ENVLTQSPAIMSASLGEKVTMSCRASSSVNYIYWYQQKSDASPKLWIYYTSNLAPGVPARFSGSGSGNSYSLTISSMEGEDAATYYCQQFSSSPSTFGTGTKLELK
notes: also called parental CT3 antibody; murine antibody CT3
B3: hCT3-2 (humanized CT3 antibody) (antibody, V domains shown)
VH: QVQLVQSGAEVKKPGASVKVSCKASRFTFTDYNIHWVRQAPGQRLEWIGYINPNNGDIFYKQKFNGRVTITRDTSASTAYMELSSLRSEDTAVYYCVRSSNIRYTFDRFFDVWGQGTLVTVS
VL: DVVMTQSPAFLSVTPGEKVTITCRASSSVNYIYWYQQKPDQAPKLWIYYTSNLAPGVPSRFSGSGSGTDFTFTISSLEAEDAATYYCQQFSSSPSTFGQGTKLEIK
B4: hCT3-4 (humanized CT3 antibody) (antibody, V domains shown)
VH: B3 VH
VL: EIVLTQSPATLSLSPGERATLSCRASSSVNYIYWYQQKPGQAPRLWIYYTSNLAPGIPARFSGSGSGTDFTLTISSLEPEDFAVYYCQQFSSSPSTFGQGTKLEIK
B5: hCT3-3 (humanized CT3 antibody) (antibody, V domains shown)
VH: B3 VH with R44G, R67K, V68A, I70M, R72V, A76T, A79V
VL: DIQMTQSPSSLSASVGDRVTITCRASSSVNYIYWYQQKSGKAPKLWIYYTSNLAPGVPSRFSGSGSGTDFTLTISSLQPEDFATYYCQQFSSSPSTFGQGTKLEIK

Legend:
[1] = target: T1, glypican-2 (GPC2), as used in the …; assay: sensorgrams, Response (nm) against Time (unit inferred), traces at 200, 100 and 50 nM; instrument and immobilised partner not stated
[2] = target: T1, glypican-2 (GPC2), as used in the …; assay: binding affinity for GPC2; method not stated (graphs in FIGS. 7A-7B)
[3] = target: T1, glypican-2 (GPC2), as used in the …; assay: sensorgrams, Response (nm) against Time (unit inferred), traces at 200, 100 and 50 nM; instrument and immobilised partner not stated; remark: listed apart in the source

Binder	Kd [1]	binding affinity [2]	Kd [3]
B1	4 nM	4 nM	–
B2	–	2.2 nM	–
B3	3.6 nM	3.6 nM	–
B4	–	3.3 nM	3.3 nM
B5	–	2.5 nM	2.5 nM

— patent publication US20250144214A1 (US Dept. of Health and Human Services, published 2025)
